Results as given in patent US20100255008A1 (Hoffmann-La Roche, published 2010).

Experiments:
[1] = target: T1, Human recombinant soluble TWEAK (human, UniProt O43508 99-249, limits assumed); test: cell-based or functional assay
T1 sequence (looked up): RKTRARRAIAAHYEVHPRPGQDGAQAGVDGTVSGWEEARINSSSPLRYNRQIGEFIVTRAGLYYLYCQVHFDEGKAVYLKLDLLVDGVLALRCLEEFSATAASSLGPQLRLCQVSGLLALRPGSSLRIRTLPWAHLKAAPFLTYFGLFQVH

[2] = target: T2, Biotinylated human soluble TWEAK (human, UniProt O43508 99-249, limits assumed, biotinylated (sites not given)); test: Biacore SPR, biotinylated human soluble TWEAK on streptavidin sensor, antibody 100 nM as analyte, 25° C.
T2 construct: also called Human TWEAK
T2 sequence (looked up): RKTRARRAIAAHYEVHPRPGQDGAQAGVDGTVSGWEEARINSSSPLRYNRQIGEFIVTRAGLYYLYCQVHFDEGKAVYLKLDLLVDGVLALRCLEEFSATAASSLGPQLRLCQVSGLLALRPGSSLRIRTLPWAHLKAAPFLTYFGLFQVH
Experimental: A Biacore 2000 instrument was used with a Biacore streptavidin coated sensor mounted into the system. The system buffer HBS-ET (10 mM HEPES pH 7.4, 150 mM NaCl, 1 mM EDTA, 0.05% Tween® 20) was used at a flow rate of 100 μl/min. The sample buffer was the system buffer. Biotinylated human soluble TWEAK and biotinylated murine soluble TWEAK was immobilized on different flow cells on the SA sensor at 150 RU each. The flow cell FC1 was used as a blank reference cell. Each antibody was injected into the system as an analyte at 100 nM at 100 μl/min for 2 min association time. The dissociation of the immunecomplexes were monitored for 5 min. The sensor surface was washed with HBS-ET for 10 seconds and regenerated using 2×2 minutes injections with 10 mM glycine pH 2.25. This procedure was done at 25° C. The kinetically rate limiting step of the complex dissociation phase in the interval [240 s-300 s] was taken to calculate the dissociation rate kd [1/s] (Biacore Evaluation Software 4.0). According to the equation t1/2 diss=ln(2)/(60×kd), the half-life of each immunocomplexe in minutes was calculated.

[3] = target: T3, human Flag-tagged soluble TWEAK (amino acids 106-249) (human, UniProt O43508 106-249); test: receptor interaction ELISA: antibody pre-incubated with human Flag-tagged soluble TWEAK, binding to coated human Fn14:Fc
T3 construct: the tag is put first here only by convention; also called Human TWEAK; not shown: Flag tag
T3 sequence (looked up): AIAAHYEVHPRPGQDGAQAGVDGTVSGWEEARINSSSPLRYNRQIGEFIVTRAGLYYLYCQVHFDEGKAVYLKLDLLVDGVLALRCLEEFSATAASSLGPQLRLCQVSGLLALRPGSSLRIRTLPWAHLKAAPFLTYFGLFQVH
Experimental: Blocking of human TWEAK/human Fn14 interaction was shown by receptor interaction ELISA. 96-well Maxisorp® plates (Nunc) were coated with 100 μl 1 μg/ml human Fn14:Fc (extracellular domain of human Fn14 (amino acids 1-75) fused to Fc portion of human IgG1) in PBS per well for 1.5 h at room temperature and blocked with a solution of 5% FBS in PBS for 30 minutes at room temperature under shaking. […] Wells were filled with 100 μl of anti-FLAG-HRP detection antibody, diluted 1:5000 in blocking buffer, and incubated for 1 h at room temperature. After four more wash steps, the signal was developed by addition of 100 μl 3,3,5,5-Tetramethylbenzidine (TMB) solution for approximately ten minutes. The reaction was stopped by adding 100 μl of 1 N HCl, and absorbance measured at 450 nm (reference wavelength 620 nm).

B1: TW212 (antibody)
VL: DIVLTQSPAYLTMSPGQTTTISCKASQSVSIGPIHLMHWYQQKPGQPPRLLIYGASNPESGVPARFSGSGSGTDFTLTIHPVEADDAATYFCQQGKESPRTFGPGTKLEITRADAKPTVSIFPPSSEQLGTGSATLVCFVNNFYPKDINVKWKVDGSEKRDGVLQSVTDQDSKDSTYSLSSTLSLTKADYERHNLYTCEVTHKTSTAAIVKTLNRNEC
VH: QVQLQESGPGLLKPAQSLSLTCTVTGYSIRSGYWWSWIRQQPGKGLEWMGQIYNKGNTDNNPSLKSQITMTVDTSKNQFFLRLRSVTTEDTAVYYCARVFWDDAYFDVWGQGIQVTVSSATTTAPSVYPLAPACDSTTSTTNTVTLGCLVKGYFPEPVTVSWNSGALTSGVHTFPSVLHSGLYSLSSSVTVPSSTWPSQTVTCNVAHPASSTKVDKKIVPGDGSGCKPCTCPGPEVSSVFIFPPKPKDVLTISLSPKVTCVVVDISQDDPEVQFSWFIDGKEVHTAVTQPREEQFNSTYRMVSVLPILHQDWLNGKEFKCKVNSPAFPVPIEKTISKRRGQLQVPQVYTMPPPKEQLTQSQVSLTCMIKGFYPEDIDVAWQKNGQPEQSFKNTPPVLDTDETYFLYSKLDVKKDDWEKGDTFTCSVVHEALHNHHTEKTLSQRPGK
notes: Armenian hamster monoclonal antibody; also called Antibody 212
- IL-8 Secretion IC50 [1]: 0.112 µg/mL
- t/2 diss [min] 25° C. [2]: 20 min
- IC50 [3]: 0.0151 µg/mL
